# B1: TPR t1 (parent)
# chain: GACCAAUCUGCCCUCAGAGCUCGAGAACAUCUUCGGAUGCAGAGGAGGCAGGCUUCGGUGGCGCGAUAGCGCCAACGUCCUCAACCUCCAAUGCAUCCCACCACAUGAUGAUGCCUGAAGAGCCUUGGUUUUUUG
# Variants of: B1
# Test: polymerase ribozyme fitness, log enrichment relative to wild type (log ratio); higher = more active; in vitro selection for triplet polymerase activity
# Method in brief: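 A heterodimeric triplet polymerase ribozyme had each of its subunits mutagenized by PCR into a library, which was transcribed. One round of in vitro selection, done in triplicate, annealed each library with a biotinylated primer, its partner subunit and triplets, then incubated it frozen at −7 °C before gel excision of extended constructs, streptavidin-bead capture and RT-PCR. Fitness is the logarithm of genotype enrichment relative to wild-type enrichment, based on Illumina sequencing of inputs and outputs and inverse-variance-weighted replicate averages. A base-2 logarithm is used, and genotypes were kept only with ≥10 input reads and ≥1 read per output.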
row,Variant,polymerase ribozyme fitness (log ratio)
1,GACCAAUCUGCCCUCAGAGCUCGAGAACAUCUUCGGAUGCAGAGGAGGCAGUCUUCGGUGGCGCGAUAGCGCCAACGUCCUCAACCUCCAAUGCAUCUCACCACAUGAUGAUGCCUGAAGAGCCUUGGUUUUUUG [G52U C98U],-2.89
2,GACCAAUCUGCCCUCAGAGCUCGAGAACAUCUUCGGAUGCAGAGGAGGCAGUCUUCGGUGGCGCGAUAGCGCCAACGUCCUCAACCUCCAAUGCAUCCUACCACAUGAUGAUGCCUGAAGAGCCUUGGUUUCUUG [G52U C99U U132C],-4.08
3,GACCAAUCUGCCCUCAGAGCUCGAGAACAUCUUCGGAUGCAGAGGAGGCAGUCUUCGGUGGCGCGAUAGCGCCAACGUCCUCAACCUCCAAUGCAUCCCACCACAUGAUGAUGCCUGAAGAGACUUGGUUUUUUG [G52U C123A],-0.303
4,GACCAAUCUGCCCUCAGAGCUCGAGAACAUCUUCGGAUGCAGAGGAGGCAGUCUUCGCUGGCGCGAUAGCGCCAACGUCCUCAACCUCCAAUGCAUCCCACCACAUGAUGAUGCCUGAAGAGCCUUGGUUUUUUG [G52U G58C],-0.674
5,GACCAAUCUGCCCUCAGAGCUCGAGAACAUCUUCGGAUGCAGAGGAGGCAGUCUUCGGUAGCGCGAUAACGCCAACGUCCUAAACCUCCAAUGCAUCCCACUACAUGAUGAUGCCUGAAGAGGCUUGGUUUUUUG [G52U G60A G69A C82A C102U C123G],-6.73
6,GACCAAUCUGCCCUCAGAGCUCGAGAACAUCUUCGGAUGCAGAGGAGGCAGUCUUCGGUGACGCGAUAGCGCCAACGUCCUCAACCUCCAAUGCAUCCCACUACAUGAUGAUGCCUGAAGAGCCUCGGUUUUUUG [G52U G61A C102U U126C],-3.23
7,GACCAAUCUGCCCUCAGAGCUCGAGAACAUCUUCGGAUGCAGAGGAGGCAGUCUUCGGUGUCGCGAUAGCGCCAACGUCCCCAACCUCCAAUGCAUCCCACCACAUGAUGAUGCUUGAAGAGCCUUGGUUUUUUG [G52U G61U U81C C115U],-4.28
8,GACCAAUCUGCCCUCAGAGCUCGAGAACAUCUUCGGAUGCAGAGGAGGCAGUCUUCGGUGGCGCGAUAACGCCAACGUCCUCAACCUCCAAUGAAUCCCACCAUAUGAUGAUGCCUGGAGAGCCUUGGUUUUUUG [G52U G69A C94A C104U A118G],-5.65
9,GACCAAUCUGCCCUCAGAGCUCGAGAACAUCUUCGGAUGCAGAGGAGGCAGUCUUCGGUGGCGCGAUACCGCAAACGUCCUCAACCUCCAAUGCAUCCCACCACAUGAUGAUGCCUGAAGAGCCUUGGUUUUUUG [G52U G69C C73A],-2.55
10,GACCAAUCUGCCCUCAGAGCUCGAGAACAUCUUCGGAUGCAGAGGAGGCAGUCUUCGGUGGCGCGAUAGCGCCAACCUCCUCAACCUCCAAUGCAUCCCACCACAUGAUGAUGCCUGAAGAGCCUUGGUUUUUUG [G52U G77C],-0.813
11,GACCAAUCUGCCCUCAGAGCUCGAGAACAUCUUCGGAUGCAGAGGAGGCAGUCUUCGGUGGCGCGAUAGCGCCAACGUCCUCAACCUCCAAUACAUCCCACCACAUGAUGAUGGCUGAAGAGCCUUGGUUUUUUG [G52U G93A C114G],-4.8
12,GACCAAUCUGCCCUCAGAGCUCGAGAACAUCUUCGGAUGCAGAGGAGGCAGUCUUCGGUGGCGCGAUAGCGCCAACGUCCUCAACCUCCAAUUCAUCCCACCACAUGAUUAUGCCUGAAGAGCCUUGGUUUUUUG [G52U G93U G110U],-3.97
13,GACCAAUCUGCCCUCAGAGCUCGAGAACAUCUUCGGAUGCAGAGGAGGCAGUCUUCGGUGGCGCGAUAGCGCCAACGUCCUCAACCUCCAAUGCAUCCCACCACAUGAUGAUGCCUGAAAAGCCUUGGUUUUUUG [G52U G120A],-0.091
14,GACCAAUCUGCCCUCAGAGCUCGAGAACAUCUUCGGAUGCAGAGGAGGCAGUCUUCGGUGGCGCGAUAGCGCCAACGUCCUCAACCUCCAAUGCAUCCCACCACAUGAUGAUGCCUGAACAGCCUUGGUUUUUUG [G52U G120C],-0.122
15,GACCAAUCUGCCCUCAGAGCUCGAGAACAUCUUCGGAUGCAGAGGAGGCAGUCUACGGUGGCGCGAUAGCGCCAACGUCCUCGACCUCCAAUGCAUCCCACCACAAGAUGAUGCUUGAAGAGCCUUGGUUUUUUG [G52U U55A A83G U106A C115U],-5.1
16,GACCAAUCUGCCCUCAGAGCUCGAGAACAUCUUCGGAUGCAGAGGAGGCAGUCUUCGGGGGCGCGAUAGCGCCAACGUCCUCAACCUACAAUGCAUCCCAUCACAUGAUGAUGCCUGAAGAGCCUUGGUUUUUUG [G52U U59G C88A C101U],-1.76
17,GACCAAUCUGCCCUCAGAGCUCGAGAACAUCUUCGGAUGCAGAGGAGGCAGUCUUCGGUGGCGCGAUAGCGCCAACGUCCUCAACCUCCAAUGCAUCCCACCACAGGAUGAUGCCUGAAGAGCCUUGGUUUUUUG [G52U U106G],-3.09
18,GACCAAUCUGCCCUCAGAGCUCGAGAACAUCUUCGGAUGCAGAGGAGGCAGUCUUCGGUGGCGCGAUAGCGCCAACGUCCUCAACCUCCAAUGCAUCCCACCACAUGAUGAUGCCUGAAGAGCCUUGGUCUUUUG [G52U U130C],-0.807
19,GACCAAUCUGCCCUCAGAGCUCGAGAACAUCUUCGGAUGCAGAGGAGGCAGUCUUCGGUGGCGCGAUAGCGCCAACGUCCUCAACCUCCAAUGCAUCCCACCACAUGAUGAUGCCUGAAGAGCCUUGGUUUAUUG [G52U U132A],-0.57
20,GACCAAUCUGCCCUCAGAGCUCGAGAACAUCUUCGGAUGCAGAGGAGGCAGGAUUCGGUGGCGCGAUAGCGCCUACGUCCUCAACCUCUAAUGCAUCCCACCACAUGAUGAUGCCUGAAGAGCCUUGGUUUUUUG [C53A A74U C89U],-0.387
21,GACCAAUCUGCCCUCAGAGCUCGAGAACAUCUUCGGAUGCAGAGGAGGCAGGAUUCGGUGGCGCGAUAGCGCCUACGUCCUCAACCUCCAAUGCAUCCCACCACAUGAUGAUGCCUGAAGAGCCAUGGUUUUUUG [C53A A74U U125A],-1.05

row,Variant,polymerase ribozyme fitness (log ratio)
1,GACCAAUCUGCCCUCAGAGCUCGAGAACAUCUUCGGAUGCAGAGGAGGCAGGAUUCGGUGGCGCGAUAGCGCCAACGUCCUCAUCCUCCAAUGCAUCCCACCACAUGAUGAUGCCUUAAGAGGCUUGGUUUUUUG [C53A A84U G117U C123G],-0.712
2,GACCAAUCUGCCCUCAGAGCUCGAGAACAUCUUCGGAUGCAGAGGAGGCAGGAUUAGGUGGCGCGAUAGCGCCAACCUCCUCAACCUCGAAUGCAUCCCACCACAUGAUGAUGCCUGAAGAGCCUUGGUUUUUUG [C53A C56A G77C C89G],-0.889
3,GACCAAUCUGCCCUCAGAGCUCGAGAACAUCUUCGGAUGCAGAGGAGGCAGGAUUAGGUGGCGCGAUAGCGCCAACGUCCUCAACCCCCAAUGCAUCCCACCACAUGAUGAUGCCUGAACAGCCUUGGUUUUUUG [C53A C56A U87C G120C],1.18
4,GACCAAUCUGCCCUCAGAGCUCGAGAACAUCUUCGGAUGCAGAGGAGGCAGGAUUUGAUGGCGCGAUAGCGCCAACGUCCUCAACCUCCAAUGCAUCCCACCACAUGAUGAUGCCUGAAGAGCCUUGGUUUUGUG [C53A C56U G58A U133G],-0.438
5,GACCAAUCUGCCCUCAGAGCUCGAGAACAUCUUCGGAUGCAGAGGAGGCAGGAUUUGGUGGCGCGAUAGCGCCAACGUCCUCAACCUCCAAUGCAUCCCACCACACGAUGAUGCCUGAAGAGCCUUGGUUUUUUG [C53A C56U U106C],-0.479
6,GACCAAUCUGCCCUCAGAGCUCGAGAACAUCUUCGGAUGCAGAGGAGGCAGGAUUCGGUGGGGCGAUAGCGCCAACGUCCUCAACCUCCAAUGCAUCCCACCACAUGGUGAUGCCUGAAGAGCCUUGGUUUUUUG [C53A C62G A108G],-3.91
7,GACCAAUCUGCCCUCAGAGCUCGAGAACAUCUUCGGAUGCAGAGGAGGCAGGAUUCGGUGGCGUGAUAGCGCCAACGCCCUCAACCUCCAAUGCAUCCCACCAAAUGAUGAUGCCUGAAGAGCCUUGGUUUUUUG [C53A C64U U78C C104A],-0.646
8,GACCAAUCUGCCCUCAGAGCUCGAGAACAUCUUCGGAUGCAGAGGAGGCAGGAUUCGGUGGCGCGAUAGUGCCAACGUCCUCAACCUCCAAUGCAUCCCACCACAUGAUGAUGCAUGUAGAGCCUUGGUUUUUUG [C53A C70U C115A A118U],-1.34
9,GACCAAUCUGCCCUCAGAGCUCGAGAACAUCUUCGGAUGCAGAGGAGGCAGGAUUCGGUGGCGCGAUAGUGCCAACGUCCUCAACCUCCAAUGCAUCCCACCACAUGAUGAUGCCUAAAGCGCCUUGGUUUUUUG [C53A C70U G117A A121C],-1.08
10,GACCAAUCUGCCCUCAGAGCUCGAGAACAUCUUCGGAUGCAGAGGAGGCAGGAUUCGGUGGCGCGAUAGCGGCAACGUCCUCAACCUCCAAUGCAUCCCACCACAUGAUGAUGCCUGAAGAGCCUUGGUUUUUUG [C53A C72G],0.124
11,GACCAAUCUGCCCUCAGAGCUCGAGAACAUCUUCGGAUGCAGAGGAGGCAGGAUUCGGUGGCGCGAUAGCGGCAACGUCCUCAACCUUCAAUGCAUCCCACCACAUGAUGAUGCCUGAAGAGGCUUGGUUUUUUG [C53A C72G C88U C123G],1.36
12,GACCAAUCUGCCCUCAGAGCUCGAGAACAUCUUCGGAUGCAGAGGAGGCAGGAUUCGGUGGCGCGAUAGCGCCAACGUACUCAACCUCCAAUGCAUCCCACCACAUGAUGAUGCCUGAAGAGCCUUGGUUUUUUG [C53A C79A],-3.06
13,GACCAAUCUGCCCUCAGAGCUCGAGAACAUCUUCGGAUGCAGAGGAGGCAGGAUUCGGUGGCGCGAUAGCGCCAACGUUCUCAACCUCCAAUGGAUCCCAACACAUGAUGAUGCCUGAAGAGCCUUGGUUUUUUG [C53A C79U C94G C101A],-1.64
14,GACCAAUCUGCCCUCAGAGCUCGAGAACAUCUUCGGAUGCAGAGGAGGCAGGAUUCGGUGGCGCGAUAGCGCCAACGUCCUUAACCUGCAAUGCAUCCCACCACAUGAUGAUGCCUGUAGAGCCUUGGUUUUUUG [C53A C82U C88G A118U],-0.344
15,GACCAAUCUGCCCUCAGAGCUCGAGAACAUCUUCGGAUGCAGAGGAGGCAGGAUUCGGUGGCGCGAUAGCGCCAACGUCCUCAACCUUCAAUGCAUCCCACCAUAUGAUGAUGCCUGAAGAGCCUUGGUUUUUUG [C53A C88U C104U],0.665
16,GACCAAUCUGCCCUCAGAGCUCGAGAACAUCUUCGGAUGCAGAGGAGGCAGGAUUCGGUGGCGCGAUAGCGCCAACGUCCUCAACCUUCAAUGCAUCCCACCACAGGAUGAUGCCUGAAGAGCCUUGGUUUUUUG [C53A C88U U106G],-1.18
17,GACCAAUCUGCCCUCAGAGCUCGAGAACAUCUUCGGAUGCAGAGGAGGCAGGAUUCGGUGGCGCGAUAGCGCCAACGUCCUCAACCUCCAAUGCAUCCUACCACAUGAUGAUGCCUGAAGAGCCUUGGUUUUUUG [C53A C99U],-4.03
18,GACCAAUCUGCCCUCAGAGCUCGAGAACAUCUUCGGAUGCAGAGGAGGCAGGAUUCGGUGGCGCGAUAGCGCCAACGUCCUCAACCUCCAAUGCAUCCCACCACAUGAUGAUGACUGAAGAGCCUUGGUUUUUUG [C53A C114A],-1.87
19,GACCAAUCUGCCCUCAGAGCUCGAGAACAUCUUCGGAUGCAGAGGAGGCAGGAUUCGGUGGCGCGAUAGCGCCAACGUCCUCAACCUCCAAUGCAUCCCACCACAUGAUGAUGCCUGAAGAGGCUUGGUUUUUUG [C53A C123G],2.31
20,GACCAAUCUGCCCUCAGAGCUCGAGAACAUCUUCGGAUGCAGAGGAGGCAGGAUUCGGUGGCGCGAUAGCGCCAACGUCCUCAACCUCCAAUGCAUCCCACCACAUGAUGAUGCCUGAAGAGCUUUGGGUUUUUG [C53A C124U U129G],-0.384
21,GACCAAUCUGCCCUCAGAGCUCGAGAACAUCUUCGGAUGCAGAGGAGGCAGGAUUCCGUGGCGCGAUAGCGCCAACGACCUCAACCUCCAAUGCAUCCCACCACAUGAUGAAGCCUGAGGAGCCUUGGUUUUUUG [C53A G57C U78A U112A A119G],2.05
